In patent CN118459575A (CHENZHOU NO 1 PEOPLES HOSPITAL, dated 2024):

How the values were obtained:
[1] = molecular target: SARS-CoV S1蛋白 (Sino Biological, 货号 40150-V08B1) (SARS-CoV, UniProt P59594 14-667); assay: ELISA, S1 coated at 2 μg/mL, antibody titrated
[2] = molecular target: SARS-CoV-2 Delta突变株 S蛋白 (假病毒) (SARS-CoV-2 Delta); assay: cell-based or functional assay
[3] = molecular target: SARS-CoV-2 Gamma突变株 S蛋白 (假病毒) (SARS-CoV-2 Gamma); assay: cell-based or functional assay
[4] = molecular target: T1, SARS-CoV-2 S1蛋白 (Sino Biological, 货号 40591-V08H) (SARS-CoV-2, UniProt P0DTC2 16-685); assay: ELISA, S1 coated at 2 μg/mL, antibody at 1 μg/mL
T1 construct: domain: S1

[5] = molecular target: T2, SARS-CoV-2-Hu-1 S蛋白 (Sino Biological, 货号 40589-V08B1) (SARS-CoV-2, UniProt P0DTC2 14-1213); assay: ELISA screen, S protein coated at 2 μg/mL, antibody at 1 μg/mL
T2 construct: extracellular domain

[6] = molecular target: T3, SARS-CoV-2 S2蛋白 (Sino Biological, 货号 40590-V08B) (SARS-CoV-2, UniProt P0DTC2 686-1213); assay: ELISA, S2 coated at 2 μg/mL, antibody at 1 μg/mL
T3 construct: domain: S2

B1: 广谱抗sarbecovirus和/或新冠突变株的抗体 SCM12-61 (antibody, V domains shown)
VH: QVQLVESGGGVVQPGRSLRLSCATSGFTFRSSAMHWVRQAPGKGLEWVAVIWFDGIKKYYTDSVKGRFTISRDNSKNTLYLQMNSLGAEDTAVYYCARDRAREFYPGPHCGDECYSSDAFDVWGQGTTVIVSS
VL: DIQMTQSPSSLSASVGDRVTITCRASQDINTYLNWYQQKSGRAPKFLIYAASSLQSGIPSRFSGSGSGTDFTLTIDSLQPEDFATYYCQQSHSIPYTFGQGTKLEIKR
- binding result [1]: binds
- 假病毒中和 IC50 [2]: 0.0248 µg/mL
- 假病毒中和 IC50 [3]: 0.00813 µg/mL
- binding result [4]: binds
- binding result [5]: binds
- binding result [6]: no binding (tested: 1μg/mL)
